Assay results from publication PMC4837482, “The complex binding mode of the peptide hormone H2 relaxin to its receptor RXFP1” (Nature Communications, 2016).
Substitutions are numbered along the chain they refer to.

Columns and labels:
[1] = target: T1, RXFP1 N43N44-AA (Homo sapiens, UniProt Q9HBX9, N65A/N66A); assay: cAMP activity assay (pCRE β-galactosidase reporter), transfected HEK293T cells; assay type: cell-based
T1 construct: transiently transfected human embryonic kidney (HEK) 293T cells expressing full-length RXFP1 and mutants; expressed in transfected cells; host or cells: HEK293T
T1 sequence (Q9HBX9 23-757 N65A/N66A limits assumed): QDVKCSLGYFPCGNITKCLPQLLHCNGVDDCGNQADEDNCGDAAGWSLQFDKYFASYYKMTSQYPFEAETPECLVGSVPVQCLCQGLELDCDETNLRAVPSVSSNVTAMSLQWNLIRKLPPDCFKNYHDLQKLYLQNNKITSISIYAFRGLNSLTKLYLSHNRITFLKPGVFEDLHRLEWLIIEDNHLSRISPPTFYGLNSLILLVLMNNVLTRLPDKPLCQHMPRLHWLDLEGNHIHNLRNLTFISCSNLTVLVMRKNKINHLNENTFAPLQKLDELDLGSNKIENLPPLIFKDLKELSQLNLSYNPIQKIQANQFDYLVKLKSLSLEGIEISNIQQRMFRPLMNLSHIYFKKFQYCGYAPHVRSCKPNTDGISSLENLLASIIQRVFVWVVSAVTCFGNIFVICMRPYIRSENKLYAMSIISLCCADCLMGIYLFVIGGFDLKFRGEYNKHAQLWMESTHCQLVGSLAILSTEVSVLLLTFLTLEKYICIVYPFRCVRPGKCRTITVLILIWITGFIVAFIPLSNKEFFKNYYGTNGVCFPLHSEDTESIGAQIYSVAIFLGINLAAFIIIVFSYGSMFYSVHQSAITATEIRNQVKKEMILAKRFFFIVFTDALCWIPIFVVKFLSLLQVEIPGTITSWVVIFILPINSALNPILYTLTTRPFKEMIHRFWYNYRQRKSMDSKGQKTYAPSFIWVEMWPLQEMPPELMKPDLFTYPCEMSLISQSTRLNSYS
Description: (§1) Media was aspirated and plates stored frozen at −80 °C overnight. […] H2 relaxin dilutions were prepared in minimal media containing 1% DMSO. Positive and negative control stimulations were achieved by incubation with 5 μM Forskolin and minimal media/1% DMSO, respectively. Plates were developed by 10 min of incubation in 25 μl of lysis buffer 1 (100 mM Na2HPO4, pH 8.0, 0.2 mM MgSO4 0.01 mM MnCl2); a further 10 min of incubation in 100 μl of buffer 2 (100 mM Na2HPO4, pH 8.0, 2 mM MgSO4, 0.1 mM MnCl2, 0.5% Triton X-100, 40 mM β-mercaptoethanol); then to each well 25 μl of the β-galactosidase substrate, chlorophenol red-β-D-galactopyranoside (Roche) was added. All incubation steps were conducted with orbital shaking. Color-change was monitored and readings were taken on a Benchmark Plus Microplate Reader (Bio-Rad) at 570 nm. A minimum of three separate experiments were performed, each of them in triplicate, and data were pooled and presented as percentages of the maximum response induced by 5 μM Forskolin±s.e.m.

[2] = target: T2, RXFP1 N44A (Homo sapiens, UniProt Q9HBX9, N66A); assay: as above; assay type: cell-based; conditions: construct N44A, ±s.e.m.
T2 construct: transiently transfected human embryonic kidney (HEK) 293T cells expressing full-length RXFP1 and mutants; expressed in transfected cells; host or cells: HEK293T
T2 sequence (Q9HBX9 23-757 N66A limits assumed): T1 sequence (Q9HBX9 23-757 N65A/N66A limits assumed) with A43N
Description: as §1

[3] = target: T3, RXFP1 F50A^ins (Homo sapiens, UniProt Q9HBX9, INS72A); assay: Eu-H2 relaxin saturation binding assay, transfected HEK293T cells; conditions: F50A^Ins-RXFP1 versus wild-type RXFP1
T3 construct: transiently transfected human embryonic kidney (HEK) 293T cells expressing full-length RXFP1 and mutants; expressed in transfected cells; host or cells: HEK293T
T3 sequence (Q9HBX9 with tags, fused parts or gaps INS72A limits assumed): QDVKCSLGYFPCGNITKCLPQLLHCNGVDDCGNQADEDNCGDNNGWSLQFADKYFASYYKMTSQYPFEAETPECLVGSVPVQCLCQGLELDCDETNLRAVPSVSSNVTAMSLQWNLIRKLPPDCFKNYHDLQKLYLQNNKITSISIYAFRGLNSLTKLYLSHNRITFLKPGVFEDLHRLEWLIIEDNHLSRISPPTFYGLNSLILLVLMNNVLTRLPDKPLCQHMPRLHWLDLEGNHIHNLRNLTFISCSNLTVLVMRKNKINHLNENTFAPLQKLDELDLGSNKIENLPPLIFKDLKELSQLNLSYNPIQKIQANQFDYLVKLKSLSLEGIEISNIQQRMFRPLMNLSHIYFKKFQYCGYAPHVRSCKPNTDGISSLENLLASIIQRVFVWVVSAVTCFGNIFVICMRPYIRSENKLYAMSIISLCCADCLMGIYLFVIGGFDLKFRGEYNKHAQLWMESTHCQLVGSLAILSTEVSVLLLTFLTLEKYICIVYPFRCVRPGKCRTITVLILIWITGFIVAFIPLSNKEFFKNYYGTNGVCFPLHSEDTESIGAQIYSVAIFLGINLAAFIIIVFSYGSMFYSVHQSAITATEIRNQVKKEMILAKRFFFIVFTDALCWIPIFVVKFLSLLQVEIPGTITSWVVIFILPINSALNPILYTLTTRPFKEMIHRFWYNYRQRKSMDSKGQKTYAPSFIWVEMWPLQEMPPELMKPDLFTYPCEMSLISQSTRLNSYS

## H2 relaxin: two-chain 6-kDa peptide hormone structurally related to insulin; recombinant human gene-2 H2 relaxin provided by Corthera
[1]; N43A/N44A RXFP1 versus wild-type RXFP1
  loss of H2 relaxin-stimulated cAMP activity: 500 fold
[1]; construct N43N44-AA, cAMP reporter, ±s.e.m.
  H2 relaxin pEC50: 8.29±0.63 (3)
[1]; construct N43N44-AA, percentage of maximum response to 5 μM Forskolin, ±s.e.m.
  H2 relaxin Emax: 118.90±12.81 (3) %
[2]; cAMP reporter
  H2 relaxin pEC50: 11.0±0.1 (4)
[2]; percentage of maximum response to 5 μM Forskolin
  H2 relaxin Emax: 92.16±6.98 (4) %
[3]
  loss of binding to H2 relaxin: 25 fold
